Paper PMC7334584 (Proceedings of the National Academy of Sciences of the …, 2020)

B1: Sulfolobus acidocaldarius Mre11 (enzyme, UniProt Q8NKQ0 1-382, looked up)
chain: MQLLHISDTHLGKRQYNLESREKDVYDTFTQLIDIAINEHVKAVIHTGDLFDVNNPPNRAKLHAIKELKRLKDHNIPFICIAGDHDSPKRKEEIYPQRILEEFNLIKILQKIDNRVKLENVEVYGISHISNVSVNDLKEQLSKVKPETRKSILMLHQGIRTYLPYQGAWQIELSDLPKGFSLYAVGHLHSRRKDYLDGGALIEIAGSPDIMREEEIEDYQKSKKGATLIDMSGDLPSINYINVNIRDQLVLDINVDKIEQSIESVIQKLKENVKNDKKPILHIELEGTVPIRKDVLMTKLQALRDYVEHYRIYKNNIVSIKEENLKTKLKTTYSSLNDIIADYLKGIGYTDEETKIIIDIINEEDEKKVEELLKKFAGVEDK
B2: Sulfolobus acidocaldarius Rad50 (enzyme, UniProt O33600 1-886, looked up)
chain: MIIREIRLQNFLSHEDTTVKFEGSINVIIGNNGAGKSSIIDGILFGLFKRTNRDIGKNEELIKKGKKSGQVSIKFEINGDTYLIDRNVGETSRDTISLLKEGKIITLARQSTTVNNKIKEILGFDHKILMSTTIIGQGSVESVFSDFPEVMKELLKINKLEMLRESNGPIHSLIKVLTDRIRSLQSIKDILKREEAEIDRLKKEIEEIKVKLENIEREAKEKEDELNQYNTEFNRIKEIKVQYDILSGELSVVNKKIEEIALRLKDFEEKEKRYNKIETEVKELDENREKINTISSFKSILVQIDSLKSQINVVENDLKRKKEKLKRKKELEEKEKQYEEIEKRKKELEEKEKQYEEIEKRLTYVLKNIERQKNEIEKLNYVDTQDLENKIKDVSDRINQIDNELKGLLDRRGDLNGRKEQTLKIYNNLNSIEDDRCPICGRPLDSEHKAKIREEIKVQLLELNKQITALQARINSLIKEREELEATRNKLQLELQKRSKEKGIYEAKLKELQRLEEEKNKLQNEILSLLSYHQEFENIAEKEKELIDYHEEYLKNSDILEEDIQEQEQRLNELNSKLSELEKSYNDYKAKYQFLPADLKSLVSLEERIRRRISELEKLKIEYERLKEEITRMKGLKEEYEKLKEEEDALLNRISELGYSEKRYKQLEEIIDKLSKILSGIEADKGKIKGSLEEKIKNIEEKERNIEELRNKMNEESKLNLGISKLQKLREVLDNKHLQSHIMNIVRNQIENNVNEVIAKFDLSFSAVEIDFVGKSELYVYTASGQKIHINALSGGERISIALALRLAIAKALMNQFSTLILDEPTVNLDEYRRKELIDVIRSAIEIVPQIILVTHDQELIQAGDYIIRVEKKGDTSKVEVSSYDR

Assays:
[1] = biological target: B2; assay: atomic force microscopy
atomic force microscopy = biological target: the molecule itself; assay: atomic force microscopy

B1
binding result [1]: binds

B2
binding result (atomic force microscopy): binds
